In patent US20240165282A1, “CONFORMATIONAL CONSTRAINED SOMATOSTATIN RECEPTOR 3 PEPTIDE LIGANDS AND THEIR CONJUGATES AND USES THEREOF” (STARGET PHARMA LTD., priority 2021, published 2024):
“And” between values parts separate entries of the source, which are not always exact repeats. Equal values may be shown once. *1 amine or outer side, *2 acyl side, *3 side chain or, on linkers, in order; H or OH if unused. Bridges are numbered along the chain shown (N, C = ends). [ ]: non-standard residue; d: D form. The star is where a group is joined. DOTA = O=C(O)CN1CCN(CC(=O)O)CCN(CC(=O)*)CCN(CC(=O)O)CC1; N(2-mercaptoethyl)Gly = O=C(CN(CCS[*:3])[*:1])[*:2]; Orn = NCCC[C@H](N)C(=O)O

Assays:
SSTR3-tGFP-U2OS cells = assay: Cellular internalization of 177Lu radiolabeled compounds; format: cell-based, human; conditions: 4 h
Experimental: In order to evaluate the cellular internalization of the ^177Lu radiolabeled SEQ ID NO: 6 in comparison to SEQ ID NO: 19 in SSTR3 transfected human cancer cell line to predict the tumor uptake of the radiolabeled compounds, the following example was performed.
Comparative SSTR3 receptor mediated internalization, was determined by incubation of the cultivate cancer cells with the ^177Lu radiolabeled compounds and determination of cellular uptake following washes of the cell culture. To evaluate the internalization as a receptor mediated process, the same experiments were performed in the presence of high concentration of cold SSTR3 ligands.
U2OS cells grow as a monolayer at +37° C. in a humidified atmosphere (5% CO2, 95% air). U2OS cancer cells are adherent to plastic flasks. For experimental use, these cancer cells are detached from the culture flask by a 5-minute treatment with trypsin-versene, in Hanks' medium without calcium or magnesium and neutralized by addition of complete culture medium.
The assay was performed as follows: Transfected human osteosarcoma cells SSTR3-tGFP-U2OS were plated in 6 well plate, 24 hours before the assay to have 80-90% confluency at the day of the assay. 30 minutes before the assay, medium was removed, and cells were washed with tempered Dulbecco's Phosphate Buffered Saline (DPBS, Sigma) and fresh medium (250 μL) is added. For total cellular uptake, 20 nM of the radioligand SEQ ID NO: 6 or SEQ ID NO: 19 were diluted in cell medium (250 μL) added to each well, in triplicate (final radioligand concentration: 10 nM). For non-specific binding, 20 μM (1000 in excess) of cold SEQ ID NO: 4 or cold SEQ ID NO: 6 or SEQ ID NO: 1 and 20 nM of ^177Lu-DOTA-PTR-58 radioligand solution in cell medium (250 μL) were added to each well, in triplicate (final cold peptide concentration: 10 μM; final radioligand concentration: 10 nM). The plates were incubated for 4 hours at +37° C. (air containing 5% CO2, humidified atmosphere). At the end of incubation, the plates were placed on ice to stop any internalization process. The medium, containing the free radioligand fraction, was collected and the cells were washed twice (2×750 μL) with ice-cold DPBS. The medium and the PBS washes were collected in the same vial from each well (final volume […]). The radioactivity of the cell pellets was counted by gamma counter and represents the cellular uptake as percentage of the administrated radioactivity. The radioactivity readouts of the wash-media were used for mass balance.

insulin release = assay: Glucose induced insulin release in rats; format: in vivo, Wistar rats; conditions: S.C. 100-1000 microgram/kg, glucose stimulation
Experimental: In vivo determination of the pharmacodynamic properties of SSTR3 analogs was carried out in rats, according to known procedures (Afargan M. et al., 2001, Pless J. et al 1986).
Adult male Wistar rats weighing 200-220 g, were maintained on a constant light-dark cycle (light from 8:00 to 20:00 h), temperature (21±3° C.), and relative humidity (55±10%). Laboratory chow and tap water were available ad libitum. All animals in the study were fasted overnight, animals were placed in cages with metal mesh to prevent coprophagia with free access to water. On the day of the experiment, rats were anesthetized with Nembutal (IP, 60 mg/kg). Ten minutes after anesthesia, drugs were administrated S.C. at 100-1000 microgram/kg dose. At 10 minutes after drugs administration the stimulation of GH and glucagon release were carried out by i.v. bolus administration of 0.5 g/kg L-arginine, stimulation of insulin release was carried out in separate animal groups that received i.v. bolus of 0.5 g/kg of glucose. Terminal blood samples in EDTA were collected at 5 minutes after stimulation. Blood samples were and centrifuged immediately. Plasma was separated and kept frozen at −20° C. until assayed.
Rat growth hormone (rGH), glucagon and insulin levels were determined by commercial ELISA kits using the Millipore ELISA kits (Billerica, MA, USA). The ELISA kit for rat plasma GH, Millipore, Cat. No. EZRMGH-45K was performed according to the validated detection method of colorimetric sandwich ELISA protocol (Supriya S. et al., 2013). The ELISA kit for rat plasma insulin, Millipore Cat. No. MMEZRMI13K (Merck) was performed according to the validated detection method of fluorescent colorimetric protocol (Xu, P.Z. et al., 2012). The ELISA kit for rat plasma glucagon, Millipore, Cat. No. EZGLU-35 was performed according to the validated detection method of chemiluminescent sandwich ELISA protocol (Soyeon Y. et al., 2021).
Data analysis of rat plasma GH, glucagon and insulin levels was evaluated by the averaged plasma hormones levels of each group. […] Results are expressed as the mean±SEM.

SSTR5 = SSTR5 (Homo sapiens, UniProt P35346); assay: Radioligand binding, displacement of 125I-Tyr11-SRIF-14; parameters: host or cells: Chem-1 (Rat ChemiSCREEN) cells, membrane preparation; conditions: hSSTR-5
From the text: (§1) The binding to human cloned receptors SSTR-1, or SSTR-2 or SSTR-3 evaluated in stable and selective transfected CHO (Chinese Hamster Ovary) cells and binding to STSR-4 and SSTR-5 in stable and selective transfected Chem-1 (Rat ChemiSCREEN) cells. […] The binding reactions were filtered, the filters were washed, and the bound radioactivity was counted using a gamma counter.
(§2) The following table depicts the conditions of binding assay to each of the somatostatin receptors used for the evaluations of binding affinities of the tested peptides. All assays were performed by quantitation method of radioligand binding under 25° C. The vehicle was 1% DMSO, the incubation buffer was 25 mM HEPES, pH 7.4, 5 mM MgCl2, 1 mM CaCl2, 0.1% BSA. […] The significance criteria were >50% of max inhibition. […] This specific binding data used for calculation of Bmax values which is the concentration of each of the expressed cloned receptor in its transfected cell system.
(§3) The Results of IC50 values were determined by a non-linear, least squares regression analysis using MathIQ™ (ID Business Solutions Ltd., UK). […] The Hill coefficient (nH), defining the slope of the competitive binding curve, was calculated using MathIQ™.

hSSTR-4 = target: T1, hSSTR-4 (Homo sapiens, UniProt P31391); assay: as above; conditions: hSSTR-4
T1 construct: host or cells: Chem-1 (Rat ChemiSCREEN) cells, membrane preparation
From the text: as §1, §2, §3

SSTR2 = SSTR2 (Homo sapiens, UniProt P30874); assay: as above; parameters: host or cells: CHO (Chinese Hamster Ovary) cells, membrane preparation; conditions: hSSTR-2
From the text: as §1, §2, §3

SSTR3 = SSTR3 (Homo sapiens, UniProt P32745); assay: as above; parameters: host or cells: CHO (Chinese Hamster Ovary) cells, membrane preparation; conditions: for % displacement of [^125I] Tyr^11-SRIF-14: hSSTR-3
From the text: as §1, §2, §3

SSTR1 = SSTR1 (Homo sapiens, UniProt P30872); assay: as above; parameters: host or cells: CHO (Chinese Hamster Ovary) cells, membrane preparation; conditions: hSSTR-1
From the text: as §1, §2, §3

SSTR3, sequence (P32745 whole entry): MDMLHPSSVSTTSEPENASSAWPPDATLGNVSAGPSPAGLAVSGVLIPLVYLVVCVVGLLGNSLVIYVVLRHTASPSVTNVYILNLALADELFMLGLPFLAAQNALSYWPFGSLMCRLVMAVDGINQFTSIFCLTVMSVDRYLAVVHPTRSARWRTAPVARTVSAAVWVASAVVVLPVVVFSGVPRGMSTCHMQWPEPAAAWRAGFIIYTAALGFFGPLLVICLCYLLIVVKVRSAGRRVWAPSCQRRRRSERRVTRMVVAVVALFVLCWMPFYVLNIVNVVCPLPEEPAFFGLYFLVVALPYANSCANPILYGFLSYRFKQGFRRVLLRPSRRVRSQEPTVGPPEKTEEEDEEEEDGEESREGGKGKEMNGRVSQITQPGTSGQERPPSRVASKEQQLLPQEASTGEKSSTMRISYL
T1 sequence (P31391 whole entry): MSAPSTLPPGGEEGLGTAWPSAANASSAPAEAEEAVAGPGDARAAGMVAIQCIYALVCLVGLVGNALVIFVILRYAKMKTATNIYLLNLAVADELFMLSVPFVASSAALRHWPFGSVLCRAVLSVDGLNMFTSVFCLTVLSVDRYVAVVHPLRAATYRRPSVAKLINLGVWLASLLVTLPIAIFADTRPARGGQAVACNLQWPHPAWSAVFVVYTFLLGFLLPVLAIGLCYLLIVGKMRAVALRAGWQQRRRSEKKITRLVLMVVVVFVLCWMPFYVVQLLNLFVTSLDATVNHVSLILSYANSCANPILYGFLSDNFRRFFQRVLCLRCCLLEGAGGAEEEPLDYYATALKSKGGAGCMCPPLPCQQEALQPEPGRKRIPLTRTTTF
SSTR5, sequence (P35346 whole entry): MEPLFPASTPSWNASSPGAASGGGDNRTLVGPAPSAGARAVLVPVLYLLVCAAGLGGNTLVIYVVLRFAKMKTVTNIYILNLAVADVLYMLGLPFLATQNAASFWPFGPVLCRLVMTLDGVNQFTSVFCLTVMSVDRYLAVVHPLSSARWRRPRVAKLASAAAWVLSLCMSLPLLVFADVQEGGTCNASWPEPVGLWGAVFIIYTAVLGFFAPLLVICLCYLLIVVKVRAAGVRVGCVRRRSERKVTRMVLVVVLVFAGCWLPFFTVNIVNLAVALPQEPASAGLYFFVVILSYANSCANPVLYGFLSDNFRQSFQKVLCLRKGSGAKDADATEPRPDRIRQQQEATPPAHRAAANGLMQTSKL
SSTR2, sequence (P30874 whole entry): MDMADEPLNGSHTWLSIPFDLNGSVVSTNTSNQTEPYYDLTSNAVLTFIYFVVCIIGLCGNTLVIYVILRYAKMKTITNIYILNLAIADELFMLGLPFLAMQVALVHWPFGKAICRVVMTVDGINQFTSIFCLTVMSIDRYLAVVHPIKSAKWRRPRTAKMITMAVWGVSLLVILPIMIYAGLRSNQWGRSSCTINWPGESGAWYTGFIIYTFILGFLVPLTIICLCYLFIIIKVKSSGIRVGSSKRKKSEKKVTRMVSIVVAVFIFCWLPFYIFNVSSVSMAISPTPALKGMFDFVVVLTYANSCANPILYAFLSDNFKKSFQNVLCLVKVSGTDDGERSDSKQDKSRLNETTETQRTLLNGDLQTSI
SSTR1, sequence (P30872 whole entry): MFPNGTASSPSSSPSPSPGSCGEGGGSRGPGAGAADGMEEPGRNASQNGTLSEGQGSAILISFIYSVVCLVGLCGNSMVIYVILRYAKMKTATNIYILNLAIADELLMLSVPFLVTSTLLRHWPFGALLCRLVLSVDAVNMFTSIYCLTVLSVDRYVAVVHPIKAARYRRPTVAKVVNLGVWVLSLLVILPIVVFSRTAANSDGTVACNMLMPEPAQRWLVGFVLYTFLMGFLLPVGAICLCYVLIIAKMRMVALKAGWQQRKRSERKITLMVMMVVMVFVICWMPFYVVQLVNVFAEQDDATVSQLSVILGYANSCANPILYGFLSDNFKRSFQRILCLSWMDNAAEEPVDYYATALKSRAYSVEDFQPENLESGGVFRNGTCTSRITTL

“^177Lu -SEQ ID NO: 6 ({DOTA}-[dF]RCF[dW]KTF[N(2-mercaptoethyl)Gly]-NH2; disulfide 3-9; also: 177Lu complex of DOTA)” was tested, and the “% Total cellular uptake” value (SSTR3-tGFP-U2OS cells; 177Lu radiolabeled, 10 nM, no blocking) was 15.5 ± 0.28% and 22.1 ± 0.5%, the “% Total cellular uptake” value (SSTR3-tGFP-U2OS cells; 177Lu radiolabeled, 10 nM, no blocking, listed as 177Lu radiolabeled SEQ ID NO. 6) was 22% and the “% Total cellular uptake” value (SSTR3-tGFP-U2OS cells; + SEQ ID NO: 4 (cold 69/71Ga for blocking)) was 0.9 ± 0.02%. For the same compound, the “% Total cellular uptake” value (SSTR3-tGFP-U2OS cells; + SEQ ID NO: 6 (cold 175Lu for blocking)) was 0.6 ± 0.02%.

With `C[C@@H](O)[C@@H]1NC(=O)[C@H](CCCCN)NC(=O)[C@@H](Cc2c[nH]c3ccccc23)NC(=O)[C@H](Cc2ccccc2)NC(=O)[C@@H](NC(=O)[C@H](N)Cc2ccccc2)CSSC[C@@H](C(=O)N[C@H](CO)[C@@H](C)O)NC1=O` [octreotide, reference compound] the “effect on insulin release” value (insulin release) was “exhibits anti-secretagogue effect of pancreatic release of insulin”.

In the case of “DOTA-D-Phe^1-Glu^2-Glu^3-Orn^4-Cys^5-Phe^6-D-Trp^7-Lys^8-Thr^9-Phe^10-NTEG^11-NH2 (cyclo 5-11) ({DOTA}-[dF]EE[Orn]CF[dW]KTF[N(2-mercaptoethyl)Gly]-NH2; disulfide 5-11; SMILES C[C@@H](O)[C@@H]1NC(=O)[C@H](CCCCN)NC(=O)[C@@H](Cc2c[nH]c3ccccc23)NC(=O)[C@H](Cc2ccccc2)NC(=O)[C@@H](NC(=O)[C@H](CCCN)NC(=O)[C@H](CCC(=O)O)NC(=O)[C@H](CCC(=O)O)NC(=O)[C@@H](Cc2ccccc2)NC(=O)CN2CCN(CC(=O)O)CCN(CC(=O)O)CCN(CC(=O)O)CC2)CSSCCN(CC(N)=O)C(=O)[C@H](Cc2ccccc2)NC1=O) [SEQ ID NO: 22]”, the “% displacement of [^125I] Tyr^11-SRIF-14” value (SSTR5; at 1 nM (in brackets)) is reported as 0(0) %, the “% displacement of [^125I] Tyr^11-SRIF-14” value (SSTR5; at 10 nM) is reported as 0(0) % and the “% displacement of [^125I] Tyr^11-SRIF-14” value (hSSTR-4; at 1 nM (in brackets)) is reported as 0%. For the same compound, the “% displacement of [^125I] Tyr^11-SRIF-14” value (hSSTR-4; at 10 nM) was 3%, the “% displacement of [^125I] Tyr^11-SRIF-14” value (SSTR2; at 1 nM (in brackets)) was 0(0) % and the “% displacement of [^125I] Tyr^11-SRIF-14” value (SSTR2; at 10 nM) was 0(0) %. The “affinity and selectivity to SSTR3 (in words)” value (SSTR3; binding data) was “did not interfere with the affinity and selectivity to SSTR3”, the “% displacement of [^125I] Tyr^11-SRIF-14” value (SSTR3; at 1 nM (in brackets)) was 0% and the “% displacement of [^125I] Tyr^11-SRIF-14” value (SSTR3; at 10 nM) was 49%. For the same compound, the “% displacement of [^125I] Tyr^11-SRIF-14” value (SSTR1; at 1 nM (in brackets)) was 8% and the “% displacement of [^125I] Tyr^11-SRIF-14” value (SSTR1; at 10 nM) was 7%.
